# Data reported in US20250213684A1 (Novartis, published 2025).
# T1: human TIM-4 expressed in CHO cells (human, UniProt Q96H15 25-378)
# T1 construct: whole, on cells
# T1 sequence (looked up): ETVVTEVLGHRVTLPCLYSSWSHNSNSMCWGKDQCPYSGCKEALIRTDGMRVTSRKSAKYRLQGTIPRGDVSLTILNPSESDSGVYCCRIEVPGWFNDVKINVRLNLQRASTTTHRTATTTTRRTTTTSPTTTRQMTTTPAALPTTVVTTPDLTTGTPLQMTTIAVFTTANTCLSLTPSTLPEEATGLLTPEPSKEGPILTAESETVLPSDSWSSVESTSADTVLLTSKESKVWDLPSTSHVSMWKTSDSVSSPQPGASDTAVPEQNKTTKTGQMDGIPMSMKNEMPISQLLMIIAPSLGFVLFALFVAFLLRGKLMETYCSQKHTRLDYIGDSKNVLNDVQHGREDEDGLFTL
# T2: cynomolgus TIM-3 expressed on transfected cells (cynomolgus monkey, UniProt A0A2K5U3G7 22-294)
# T2 construct: whole, on cells; also called cynoTIM-3; cynomolgus monkey TIM-3
# T2 sequence: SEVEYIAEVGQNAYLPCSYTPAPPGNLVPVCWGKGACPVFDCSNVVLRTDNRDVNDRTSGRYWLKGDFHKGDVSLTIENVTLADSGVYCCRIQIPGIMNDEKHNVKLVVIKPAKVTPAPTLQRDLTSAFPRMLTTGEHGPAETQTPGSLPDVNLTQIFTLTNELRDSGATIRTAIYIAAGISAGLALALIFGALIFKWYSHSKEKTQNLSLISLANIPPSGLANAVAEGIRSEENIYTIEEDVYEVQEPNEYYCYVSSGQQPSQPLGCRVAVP
# B1: ABTIM3 (antibody, V domains shown)
# VH: QVQLQQPGAELVKPGASVKMSCKASGYTFTSYNMHWIKQTPGQGLEWIGDIYPGNGDTSYNQKFKGKATLTADKSSSTVYMQLSSLTSEDSAVYYCARVGGAFPMDYWGQGTSVTVSS
# VL: DIVLTQSPASLAVSLGQRATISCRASESVEYYGTSLMQWYQQKPGQPPKLLIYAASNVESGVPARFSGSGSGTDFSLNIHPVEEDDIAIYFCQQSRKDPSTFGGGTKLEIK
# notes: Murine monoclonal antibody; also called murine anti-TIM-3 antibody ABTIM3; parent murine anti-TIM-3 antibody
# What was measured:
# [1] = molecular target: T3, murine TIM-3 expressed in cells (murine, UniProt Q8VIM0 20-281); assay: flow cytometry on cells expressing murine TIM-3
# T3 construct: whole, on cells; also called mouse TIM-3
# [2] = molecular target: T1, human TIM-4 expressed in CHO cells; assay: flow cytometry on CHO cells expressing human TIM-4
# [3] = molecular target: T4, human TIM-3 expressed on cells (human, UniProt Q8TDQ0 22-301); assay: flow cytometry on cells expressing human TIM-3
# T4 construct: also called huTIM-3; hTIM-3
# [4] = molecular target: T4, human TIM-3 expressed on cells; assay: flow cytometry on activated human PBMCs, CD4 gated
# [5] = molecular target: T4, human TIM-3 expressed on cells; assay: flow cytometry on activated human PBMCs, CD8 gated
# [6] = molecular target: T2, cynomolgus TIM-3 expressed on …; assay: flow cytometry (Median FI-FITC), CynoTim-3-300.19 cells
# [7] = molecular target: T4, human TIM-3 expressed on cells; assay: flow cytometry, 300.19 huTIM3 cells, detected by secondary Ab-FITC
# [8] = molecular target: TIM-3 (antigen; species and construct not stated for the assay) (UniProt Q8TDQ0 22-202, limits assumed); assay: FACS competition binding against the parent murine ABTIM3; cells not named on the sheet
# [9] = molecular target: T4, human TIM-3 expressed on cells; assay: flow cytometry competition on 300.19 hTIM3 cells in presence of ABTIM3; signal is MFI of 0.51ug/ml 22C1-PE
# T3 sequence (Q8VIM0 20-281): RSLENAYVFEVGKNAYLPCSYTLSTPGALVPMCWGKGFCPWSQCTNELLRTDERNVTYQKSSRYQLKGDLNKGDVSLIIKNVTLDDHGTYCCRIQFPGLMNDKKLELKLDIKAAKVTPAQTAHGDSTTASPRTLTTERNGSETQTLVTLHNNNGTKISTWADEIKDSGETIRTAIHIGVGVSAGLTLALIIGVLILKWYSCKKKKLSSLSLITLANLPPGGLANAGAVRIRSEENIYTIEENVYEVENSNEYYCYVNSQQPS
binder,measurement,setting,value
B1,binding result,[1],no binding
same,binding result,[2],no binding
same,Kd,[3],1.04 nM
same,Kd,[4],0.29 nM
same,Kd,[5],0.3 nM
same,EC50 (read off the curve),[6],~0.3 µg/mL
same,EC50 (read off the curve),[7],~0.1 µg/mL
same,IC50 (read off the curve),[8],~0.2 µg/mL
same,IC50 (read off the curve),[9],~0.2 µg/mL
